Results on one molecule are retold here after patent US20170096478A1, “THERAPEUTIC AGENT FOR INFLAMMATORY DISEASE” (Josai University Corporation, priority 2012, published 2017).

One experiment relates to CD3 positive T cells. In words: Reactivity of the monoclonal antibody with T cells by flow cytometry (FACS). It counts as cell-based, C57BL/6 mouse. The following applies: unstimulated T cells, 16G9 mAb compared with SSV mAb. Here is the method: Using the following approach, spleen was removed from a C57BL/6 mouse (5 weeks old, female, CHARLES RIVER LABORATORIES JAPAN, INC.) to prepare whole splenic cells.
First, in a 5 ml culture dish (BD Bioscience FALCON 351007) into which 5 ml RPMI 1640 culture medium (Sigma-Aldrich, R-8758) was transferred, spleen was disentangled well with scissors for dissection and forceps to suspend the splenic cells, which were then transferred to a 15 ml centrifuge tube (BD Bioscience FALCON 352096). Then, the 5 ml dish was washed several times with phosphate-buffered saline (PBS, Invitrogen, 20012-027), and these were also added to the foregoing cell suspension and allowed to stand, and then the supernatant was collected in another 15 ml centrifuge tube. In addition, 5 ml RPMI 1640 culture medium was also added to the residual insoluble spleen tissue again and allowed to stand, and then only the supernatant was collected, which was combined with the above-mentioned cell suspension to perform centrifugation at 1,500 rpm for 5 min. To the collected cells, added was 2 ml lysis buffer (150 mM NH4Cl/15 mM NaHCO3/0.1 mM EDTA-Na2, pH 7.3) and hemolyzed by tapping, and then 10 ml PBS was added. After washed 3 times by centrifugation at 1,500 rpm for 5 min, whole splenic cells were obtained. […]
The reactivity of the above unstimulated with 16G9 mAb or SSV mAb was analyzed by flow cytometry (FACS). […]

For experiment [1], the system named is lipopolysaccharide (LPS)-induced lethal sepsis. In words: Test Example 8-5: measurement of inflammation-associated cytokine in serum. The experiment is classed as in vivo, BALB/c mice. The conditions noted are these: vs control group. How it is done:
BALB/c mice (bodyweight of 20 g to 30 g when starting the experiments, n=10) were raised in a plastic cage under SPF and thermo-hydrostat (22±1° C., 55±5%) conditions under 12-hour light-dark cycle. Foods and water were supplied ad libitum. Then, by intraperitoneally administering LPS to the mice at a dose of 40 mg/kg, lipopolysaccharide (LPS)-induced lethal sepsis as an inflammatory disease was induced in the same manner as Test Example 7. SSV mAb dissolved in physiological saline was intraperitoneally administered totally 3 times, i.e., at 30 minutes before, 6 hours after and 12 hours after the intraperitoneal administration of LPS, in an amount of 100 μg/dose in terms of the amount of SSV mAb. The survival of the animals thereafter was tested. To the control group, IgG (SIGMA) dissolved in physiological saline was administered in place of SSV mAb in the same manner.
In Test Example 8, serum was obtained from venous blood of the control group and the SSV mAb-administered group every 3 hours. Then, the concentrations of inflammatory cytokine (TNF-α, IL-1β, IL-6) and inhibitory cytokine (IL-10) in obtained samples were measured by using a commercially available measurement kit using ELISA.

B1: SSV mAb: monoclonal antibody (IgG1) produced by Mouse-Mouse hybridoma SSV-C 93-3 (NITE BP-972), raised against peptide … (SEQ ID NO:1)-KLH conjugate (antibody, V domains shown)
VH: EIQLQQSGAELVKPGASVKISCKASGYSFTGYNMNWVKQSHGKSLEWIGNINPYYGSTSYNQKFKGKATLTVDKSSSTAYMQLNSLTSEDSAVYYCARSPYYSNYWRYFDYWGQGTTLTVSS
VL: QIVLSQSPAILSASPGEKVTMTCRASSSVSYMHWYQQKPGSSPKPWIYATSNLASGVPARFSGSGSGTSYSLTISRVEAEDAATYYCQQWSSNPWTFGGGTKLEIK
As to B1, the “reactivity with CD3 positive T cells” value with CD3 positive T cells was “comparative reactivity”. In experiment [1], the “IL-1β concentration in blood sample” value was “significantly decreased”, the “IL-6 concentration in blood sample” value was “significantly decreased”, the “IL-10 concentration in blood sample” value is reported as “significantly increased” and the “TNF-α concentration in blood sample” value is given as “significantly decreased”.
